Assay results: patent publication US20220119529A1 (SUZHOU KANOVA BIOPHARMACEUTICAL, published 2022)
Numbering of substitutions follows the chain as printed.

T1: Mouse B7H3 (plate-coated protein, ELISA) (mouse, UniProt Q8VE98 29-248, limits assumed)
T1 sequence (looked up): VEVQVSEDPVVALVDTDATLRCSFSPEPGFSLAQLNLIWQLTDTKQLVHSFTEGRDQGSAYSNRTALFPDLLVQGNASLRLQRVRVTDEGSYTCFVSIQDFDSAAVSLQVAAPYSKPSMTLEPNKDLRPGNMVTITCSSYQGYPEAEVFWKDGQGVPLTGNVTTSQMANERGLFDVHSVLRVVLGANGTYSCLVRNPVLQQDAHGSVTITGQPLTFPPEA

T2: Cynomolgus B7H3 (plate-coated protein, ELISA) (cynomolgus monkey)
T2 chain: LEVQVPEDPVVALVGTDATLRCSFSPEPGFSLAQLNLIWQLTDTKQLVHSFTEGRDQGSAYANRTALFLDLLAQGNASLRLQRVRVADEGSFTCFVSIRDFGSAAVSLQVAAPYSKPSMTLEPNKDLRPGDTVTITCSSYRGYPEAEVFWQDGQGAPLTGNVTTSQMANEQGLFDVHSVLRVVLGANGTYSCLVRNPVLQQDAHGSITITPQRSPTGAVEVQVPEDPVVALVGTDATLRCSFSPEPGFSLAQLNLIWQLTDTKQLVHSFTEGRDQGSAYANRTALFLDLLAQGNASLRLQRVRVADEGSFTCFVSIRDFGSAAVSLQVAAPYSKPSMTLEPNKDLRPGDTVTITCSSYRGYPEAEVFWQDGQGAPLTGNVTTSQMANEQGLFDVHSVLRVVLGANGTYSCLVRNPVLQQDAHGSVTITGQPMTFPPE

T3: human B7H3-4Ig on BaF3 cells (BaF3/B7H3-4Ig) (human, UniProt Q5ZPR3 29-534)
T3 sequence: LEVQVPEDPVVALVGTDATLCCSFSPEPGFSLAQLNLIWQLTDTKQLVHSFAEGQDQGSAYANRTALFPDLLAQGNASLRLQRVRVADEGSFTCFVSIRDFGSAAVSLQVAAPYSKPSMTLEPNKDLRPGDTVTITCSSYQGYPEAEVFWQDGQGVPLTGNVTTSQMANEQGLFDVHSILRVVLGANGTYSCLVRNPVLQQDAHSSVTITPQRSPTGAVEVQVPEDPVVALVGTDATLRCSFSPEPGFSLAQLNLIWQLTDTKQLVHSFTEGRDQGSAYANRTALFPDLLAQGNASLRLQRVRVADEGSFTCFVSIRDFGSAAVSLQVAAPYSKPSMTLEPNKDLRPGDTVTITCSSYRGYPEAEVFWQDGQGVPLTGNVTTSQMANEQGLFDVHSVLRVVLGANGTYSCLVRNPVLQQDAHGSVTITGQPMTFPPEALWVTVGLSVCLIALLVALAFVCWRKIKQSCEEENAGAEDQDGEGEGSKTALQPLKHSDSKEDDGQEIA

T4: Human B7-H3 extracellular domain (NCBI Reference Sequence: NM_025240.2) (human, UniProt Q5ZPR3 29-466)
T4 chain: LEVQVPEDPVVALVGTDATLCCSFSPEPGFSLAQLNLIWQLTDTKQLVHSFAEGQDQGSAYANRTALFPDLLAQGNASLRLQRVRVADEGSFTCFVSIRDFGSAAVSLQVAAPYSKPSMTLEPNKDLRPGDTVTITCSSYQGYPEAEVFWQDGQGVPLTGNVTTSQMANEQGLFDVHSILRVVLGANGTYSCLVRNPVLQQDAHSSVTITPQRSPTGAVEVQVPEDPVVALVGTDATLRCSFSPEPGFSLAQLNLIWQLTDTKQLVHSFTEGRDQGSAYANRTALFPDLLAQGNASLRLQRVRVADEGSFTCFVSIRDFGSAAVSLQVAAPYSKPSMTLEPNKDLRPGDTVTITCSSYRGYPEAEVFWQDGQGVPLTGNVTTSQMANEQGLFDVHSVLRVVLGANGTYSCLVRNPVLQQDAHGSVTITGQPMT

T5: human B7H3-2Ig on BaF3 cells (BaF3/B7H3-2Ig) (human, UniProt Q5ZPR3 29-534)
T5 chain: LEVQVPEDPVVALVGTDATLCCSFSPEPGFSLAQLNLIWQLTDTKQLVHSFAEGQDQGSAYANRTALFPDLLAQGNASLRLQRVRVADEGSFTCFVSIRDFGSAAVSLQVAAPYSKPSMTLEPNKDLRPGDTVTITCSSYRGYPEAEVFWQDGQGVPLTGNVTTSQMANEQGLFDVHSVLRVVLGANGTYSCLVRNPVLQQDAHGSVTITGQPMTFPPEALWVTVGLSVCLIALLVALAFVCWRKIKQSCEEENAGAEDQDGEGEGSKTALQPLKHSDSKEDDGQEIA

B1: #23-5423 (VH5-4-VL2-3) (antibody, IgG1, V domains shown)
VH: QVQLVQSGAEVKKPGESLKISCKASGYNFNNYWMHWVRQRPGKGLEWIGMIHPNSGTFNYNERFKRKATLTVDKSISTAYLQWSSLKAEDTAMYYCAKSTALATDYWGQGTLVTVSS
VL: QIVLTQSPSTLSASVGDRVTITCSASSSVSYMYWYQQKPGKAPKLLIYDTSNLASGVPIRFSGSGSGTSYTLTISSLQPDDFATYYCQQWSSYPLTFGQGTKLEIK
notes: Humanized antibody from murine #23
B2: #27-21 (VH2-2-VL2-1) (antibody, V domains shown)
VH: QVQLVQSGAEVVKPGASVKVSCKASGYTFTNYWMHWVKQAPGQGLEWIGMIHPNSGAFNYNERFKTRVTITVDKSTSTAYMELSSLRSEDTAVYYCARSTALATGYWGQGTLLTVSS
VL: B1 VL with Q1D, V3Q, T10F, A42S, I59S, S69E, D80E
notes: Humanized antibody from murine #27; Detected with anti-human IgG and captured through Fc; also called #27-VH2-2/VL2-1
B3: #27-2121 (VH2-1-VL2-1) (antibody, IgG1, V domains shown)
VH: B2 VH with K38R, I48M, L113V
VL: B1 VL with Q1D, V3Q, T10F, A42S, I59S, S69E, D80E
notes: Humanized antibody from murine #27; also called #27-VH2-1/VL2-1
B4: #23-5424 (VH5-4-VL2-4) (antibody, IgG1, V domains shown)
VH: B1 VH
VL: B1 VL with I21M, L77M, A83V
notes: Humanized antibody from murine #23; also called #23-VH5-4/VL2-4
B5: #27-22 (VH2-2-VL2-2) (antibody, IgG1, V domains shown)
VH: B2 VH
VL: B1 VL with Q1D, V3Q, T10F, I21M, A42S, I59S, S69E, D80E, A83V
notes: Humanized antibody from murine #27; also called #27-VH2-2/VL2-2

Target: B7H3 expressed on LPS-stimulated human PBMCs (monocytes) (human) (UniProt Q5ZPR3)
Assay: flow cytometry (MFI) on LPS-stimulated human PBMCs; panel 'XKH007 23-5423'

Row | Binder | EC50
1 | B1 | 1.54 nM

Target: T1, Mouse B7H3 (plate-coated protein, ELISA)
Assay: ELISA, antigen coated on plate, anti-human IgG-HRP
Protocol: (§1) In order to test humanized anti-B7H3 antibody binding affinity, an ELISA analysis was carried out. Human B7H3, mouse B7H3, and cynomolgus B7H3 (2 ug/ml, in PBS) were coated on MaxiSorp 96-well plates (NUNC, 449824) in 0.5M carbonate/bicarbonate buffer, pH9.6, incubated at 4° C. overnight. Coated plates were blocked with skimmed milk (5%, in PBST) for 1 h. Humanized anti-B7H3 antibodies were diluted and added to the plates, and incubated for 2 h at room temperature. Washed three times with PBST (1×PBS with 0.05% tween-20) to eliminate un-bounded antibodies. Goat anti-Human IgG-HRP (Easybio, BE0122, 1:5000 in PBS) was added and incubated for 1 h. Washed three times with PBST (lx PBS with 0.05% tween-20) to eliminate un-bounded antibodies. TMB (eBioscience, 00-4201-56) was added (50 ul/well) for color rendering and stopped by 2N H2SO4 (50 ul/well). Optical density was measured at 450 nm and […]. As shown in FIG. 1A and Table 1, the antibodies bind to human, mouse and cynomolgus monkey B7H3 protein with high affinity. The binding ability of the mAbs to cynomolgus B7H3 is similar to that for human B7-H3 protein.

Row | Binder | EC50
2 | B2 | 0.586 nM
3 | B1 | 1.44 nM
4 | B3 | 0.462 nM
5 | B4 | 4.9 nM
6 | B5 | 0.34 nM

Target: T2, Cynomolgus B7H3 (plate-coated protein, …)
Assay: ELISA, antigen coated on plate, anti-human IgG-HRP
Protocol: as §1

Row | Binder | EC50
7 | B2 | 0.685 nM
8 | B1 | 0.042 nM
9 | B3 | 0.494 nM
10 | B4 | 0.0652 nM
11 | B5 | 0.584 nM

Target: T3, human B7H3-4Ig on BaF3 cells …
Assay: flow cytometry on BaF3/B7H3-4Ig cells
Protocol: (§2) Cell surface binding affinity was tested with BaF3/B7H3-2Ig and BaF3/B7H3-4Ig the same method separately. Cells were washed with PBS and aliquot to 96-well U-bottom plate with a cell density of 5×10\hat{ }5 cells/well. For live/dead stain, LIVE/DEAD® Fixable Aqua Dead Cell Stain Kit (Life technologies, L34957) was applied (1:1000 in PBS, 100 ul/well) to cells, and incubated at 4° C. for 10 min FACS buffer (2% FBS in PBS, 100 ul/well) was added to each well to terminate staining. Centrifuge (1200 rpm, 5 min) to discard supernatant and wash with FACS buffer once. Humanized anti-B7H3 antibodies were diluted in FACS buffer to according concentrations and added to each well (100 ul/well). Cells were incubated at 4° C. for 30 min, and then, washed twice with FACS buffer. Alexa Fluor® 594 labeled goat anti-human IgG (Jackson Immuno Research, 109-585-088) was added (1:500 in FACS buffer) to label bounded antibodies. Cells were incubated at 4° C. for 30 min, and then, washed twice with FACS buffer.

Row | Binder | EC50
12 | B2 | < 1 nM
13 | B3 | < 1 nM
14 | B5 | < 1 nM

Target: T3, human B7H3-4Ig on BaF3 cells …
Assay: flow cytometry (MFI) on BaF3 cells stably expressing human B7H3-4Ig; panel 'BaF3-B7H3-4Ig'
Protocol: as §2

Row | Binder | binding result
15 | B1 | binds
16 | B4 | binds

Target: B7H3 expressed on LPS-stimulated human PBMCs (monocytes) (human) (UniProt Q5ZPR3)
Assay: flow cytometry (MFI) on LPS-stimulated human PBMCs; panel 'XKH007-2721'

Row | Binder | EC50 (read off the curve)
17 | B2 | 0.06 nM

Target: B7H3 expressed on LPS-stimulated human PBMCs (monocytes) (human) (UniProt Q5ZPR3)
Assay: flow cytometry (MFI) on LPS-stimulated human PBMCs; panel 'XKH007 23-5424'

Row | Binder | EC50
18 | B4 | 1.98 nM

Target: B7H3 expressed on LPS-stimulated human PBMCs (monocytes) (human) (UniProt Q5ZPR3)
Assay: flow cytometry on LPS-stimulated human PBMCs

Row | Binder | EC50
19 | B2 | < 1 nM
20 | B1 | < 3 nM
21 | B3 | < 1 nM
22 | B4 | < 3 nM
23 | B5 | < 1 nM

Target: T4, Human B7-H3 extracellular domain (NCBI …)
Assay: SPR, Biacore 8K, antibody captured through Fc, B7-H3 ECD as analyte

Row | Binder | Kd | koff | kon
24 | B2 | 1.44 nM | 0.000431 s⁻¹ | 299000 M⁻¹ s⁻¹
25 | B1 | 1.05 nM | 0.000345 s⁻¹ | 329000 M⁻¹ s⁻¹
26 | B3 | 1.42 nM | 0.000433 s⁻¹ | 306000 M⁻¹ s⁻¹
27 | B4 | 1.36 nM | 0.000356 s⁻¹ | 263000 M⁻¹ s⁻¹
28 | B5 | 1.26 nM | 0.000365 s⁻¹ | 288000 M⁻¹ s⁻¹

Target: B7H3 expressed on LPS-stimulated human PBMCs (monocytes) (human) (UniProt Q5ZPR3)
Assay: flow cytometry (MFI) on LPS-stimulated human PBMCs; panel 'XKH007-272121'

Row | Binder | EC50
29 | B3 | 0.117 nM

Target: B7H3 expressed on LPS-stimulated human PBMCs (monocytes) (human) (UniProt Q5ZPR3)
Assay: flow cytometry (MFI) on LPS-stimulated human PBMCs; panel 'XKH007-2722'

Row | Binder | EC50
30 | B5 | 0.131 nM

Target: Human B7H3 (plate-coated protein, ELISA) (human) (UniProt Q5ZPR3)
Assay: ELISA, antigen coated on plate, anti-human IgG-HRP

Row | Binder | EC50
31 | B2 | 0.618 nM
32 | B1 | 0.0685 nM
33 | B3 | 0.583 nM
34 | B4 | 0.125 nM
35 | B5 | 0.333 nM

Target: T3, human B7H3-4Ig on BaF3 cells …
Assay: flow cytometry (MFI) on BaF3 cells stably expressing human B7H3-4Ig; panel 'BaF3/4Ig-B7H3'
Protocol: as §2

Row | Binder | EC50
36 | B2 | 0.896 nM
37 | B3 | 0.908 nM
38 | B5 | 0.984 nM

Target: T5, human B7H3-2Ig on BaF3 cells …
Assay: flow cytometry (MFI) on BaF3 cells stably expressing human B7H3-2Ig; panel 'BaF3/2Ig-B7H3'

Row | Binder | EC50
39 | B2 | 0.897 nM
40 | B3 | 0.777 nM
41 | B5 | 1.16 nM

Target: T5, human B7H3-2Ig on BaF3 cells …
Assay: flow cytometry on BaF3/B7H3-2Ig cells

Row | Binder | EC50
42 | B2 | < 1 nM
43 | B3 | < 1 nM
44 | B5 | < 1 nM
